# From patent US5595877, “Methods of producing nucleic acid ligands” (NeXstar Pharmaceuticals, Inc.)
# Target: HIV-1 reverse transcriptase (HIV-RT) (HIV-1, UniProt P04585;P04585 P04585:588-1147,P04585:588-1027)
# Assay: footprint; chemical modification protection and modification interference; 200 mM KOAc, 50 mM Tris-HCl pH 7.7, 37 C
# Settings: pseudoknot
# Protocol: Affinity assays with labeled RNA and HIV-RT. Model RNAs for refinement of the 5' and 3' boundaries and for determination of the effect of substitutions were labeled during transcription with T7 RNA polymerase as described in Tuerk et al. (1990) except that a-32P-ATP was used, in reactions of 0.5 mM C,G, and UTP with 0.05 mM ATP. Synthetic oligonucleotides and phosphatased transcripts (as in Tuerk et al., 1990) were kinased as described in Gauss et al. (1987). All RNA-protein binding reactions were done in a "binding buffer" of 200 mM KOAc, 50 mM Tris-HCl pH 7.7, 10 mM dithiothreitol with exceptions noted for chemical protection experiments below. RNA and protein dilutions were mixed and stored on ice for 30 minutes then transferred to 37° C. for 5 minutes. […] Each reaction was suctioned through a pre-wet (with binding buffer) nitrocellulose filter and rinsed with 3 mls of binding buffer after which it was dried and counted for assays or subjected to elution and assayed for chemical modification. In comparisons of binding affinity, results were plotted and the protein concentration at which half-maximal binding occurred (the approximate Kd in conditions of protein excess) was determined graphically.
# Selection of modified RNAs by HIV-RT. […] The extent of modification interference by ENU was determined by densitometric scanning of films using an LKB laser densitomer.
binder,measurement,value
lengthened ligand B RNA (ssRNA) RNA: GGUCCGAAGUGCAACGGGAAAAUGCACUAUGAAAGAAUUUUAUAUCUCUAUUGAAAC,binding result,binds
